In this test the target is Leishmania tarentolae propionyl-CoA carboxylase (LtPCC) β-subunit (Leishmania tarentolae (endogenous in L. tarentolae cells)). The test can be described thus: cryo-EM structure; endogenous LtPCC complexes from streptavidin pull-down, in 20 mM Tris-HCl pH 7.5, 60 mM KCl, 5 mM MgCl2, 1 mM DTT, 5 mM OG; α6β6 map with D3 symmetry at 3.2 Å, α5β6 (8.6 Å) and α4β6 (10.3 Å) maps with C1 symmetry.

Broadly, the stoichiometry N is a count of units in the complex or per binding partner.

Substance “Leishmania tarentolae propionyl-CoA carboxylase (LtPCC) β-subunit (natural protein)” came in with a stoichiometry N of 6.

(Values after article PMC10148081.)
